Reference: patent US20120251571, “RNASE L-MEDIATED CLEAVAGE PRODUCTS AND USES […]” (The Cleveland Clinic Foundation, published 2012)

Experiments:
Flag-RIG-I [1] = target: T1, Flag-RIG-I (Homo sapiens, UniProt O95786 O95786:1-925); test: pulldown; two clones; conditions: tags: FLAG, from 293T cells
T1 sequence: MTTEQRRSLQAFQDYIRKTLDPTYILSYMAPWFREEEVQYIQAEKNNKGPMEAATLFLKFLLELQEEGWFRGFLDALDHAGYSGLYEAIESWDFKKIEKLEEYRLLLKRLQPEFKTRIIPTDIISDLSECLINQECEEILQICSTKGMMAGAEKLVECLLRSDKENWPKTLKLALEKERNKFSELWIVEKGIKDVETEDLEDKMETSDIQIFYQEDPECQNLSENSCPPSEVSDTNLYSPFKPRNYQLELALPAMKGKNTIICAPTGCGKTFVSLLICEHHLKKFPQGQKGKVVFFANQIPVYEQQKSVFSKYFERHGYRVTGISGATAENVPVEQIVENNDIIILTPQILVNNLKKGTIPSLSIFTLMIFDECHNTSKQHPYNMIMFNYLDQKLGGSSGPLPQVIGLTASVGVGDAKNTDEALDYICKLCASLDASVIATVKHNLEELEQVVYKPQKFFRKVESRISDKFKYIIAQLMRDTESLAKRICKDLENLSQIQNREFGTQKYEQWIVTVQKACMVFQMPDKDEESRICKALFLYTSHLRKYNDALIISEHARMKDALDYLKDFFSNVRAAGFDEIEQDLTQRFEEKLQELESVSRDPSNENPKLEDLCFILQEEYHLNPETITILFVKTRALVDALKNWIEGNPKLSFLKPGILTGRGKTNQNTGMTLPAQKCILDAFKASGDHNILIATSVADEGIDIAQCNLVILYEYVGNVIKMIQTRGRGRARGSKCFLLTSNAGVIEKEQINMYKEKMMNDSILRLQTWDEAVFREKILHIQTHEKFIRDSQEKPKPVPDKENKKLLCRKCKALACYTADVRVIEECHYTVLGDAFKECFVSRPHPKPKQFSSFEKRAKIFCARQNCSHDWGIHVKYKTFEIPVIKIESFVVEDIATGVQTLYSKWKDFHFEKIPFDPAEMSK

[2] = target: T2, N-RIG (RIG-I N-terminal polypeptide) (UniProt O95786 O95786:1-228); test: EMSA; N-terminal polypeptide control; conditions: broken stem-loop with 5' and 3' ss overhangs
T2 sequence: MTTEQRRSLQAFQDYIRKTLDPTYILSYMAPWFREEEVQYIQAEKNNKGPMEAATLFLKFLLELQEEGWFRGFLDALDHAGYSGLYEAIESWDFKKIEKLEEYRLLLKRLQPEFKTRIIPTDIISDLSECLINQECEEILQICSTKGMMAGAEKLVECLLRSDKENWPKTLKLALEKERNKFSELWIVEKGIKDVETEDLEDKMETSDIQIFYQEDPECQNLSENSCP

RIG-I full-length [3] = target: T3, RIG-I full-length (Homo sapiens, UniProt O95786 O95786:1-925); test: EMSA; stable complex; 10 pmol protein, 6 pmol RNA, 20 mM Tris pH 8.0, 1.5 mM MgCl2, 37 C; conditions: tags: recombinant full-length (Saito et al. 2007, 2008); broken stem-loop with 5' and 3' ss overhangs
T3 sequence: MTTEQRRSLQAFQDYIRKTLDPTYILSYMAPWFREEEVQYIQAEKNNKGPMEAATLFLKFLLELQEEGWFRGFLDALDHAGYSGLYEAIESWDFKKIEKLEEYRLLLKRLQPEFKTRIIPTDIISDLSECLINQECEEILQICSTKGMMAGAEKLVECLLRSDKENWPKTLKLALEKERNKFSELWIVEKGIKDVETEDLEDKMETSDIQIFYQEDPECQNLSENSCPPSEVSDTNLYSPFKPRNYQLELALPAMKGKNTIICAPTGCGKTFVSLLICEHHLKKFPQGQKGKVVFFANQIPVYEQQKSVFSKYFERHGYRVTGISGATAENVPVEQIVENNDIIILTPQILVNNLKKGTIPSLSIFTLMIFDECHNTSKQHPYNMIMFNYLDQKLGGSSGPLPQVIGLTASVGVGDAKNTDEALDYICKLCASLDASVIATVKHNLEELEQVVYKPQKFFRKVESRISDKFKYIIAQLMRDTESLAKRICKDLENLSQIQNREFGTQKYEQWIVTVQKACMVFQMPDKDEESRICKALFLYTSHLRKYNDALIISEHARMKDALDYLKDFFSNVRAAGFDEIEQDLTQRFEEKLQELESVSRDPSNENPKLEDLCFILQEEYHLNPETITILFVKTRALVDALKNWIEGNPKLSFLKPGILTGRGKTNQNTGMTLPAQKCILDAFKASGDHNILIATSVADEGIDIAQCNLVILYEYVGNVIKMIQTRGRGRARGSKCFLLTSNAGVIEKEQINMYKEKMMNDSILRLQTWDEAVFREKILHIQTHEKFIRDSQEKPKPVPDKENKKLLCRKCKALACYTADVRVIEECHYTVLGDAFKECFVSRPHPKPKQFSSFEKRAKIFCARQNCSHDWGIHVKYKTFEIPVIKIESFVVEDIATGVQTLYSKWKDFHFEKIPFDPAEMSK

Flag-RIG-I [4] = target: T1, Flag-RIG-I; test: pulldown; one clone; conditions: tags: FLAG, from 293T cells
Flag-RIG-I [5] = target: T1, Flag-RIG-I; test: pulldown; three clones; conditions: tags: FLAG, from 293T cells
Flag-RIG-I [6] = target: T1, Flag-RIG-I; test: pulldown; eight clones; conditions: tags: FLAG, from 293T cells; broken stem-loop with 5' and 3' ss overhangs
RIG-I full-length [7] = target: T3, RIG-I full-length; test: EMSA; stable complex; 1.5 mM MgCl2, 37 C; conditions: tags: recombinant full-length (Saito et al. 2007, 2008); broken stem-loop with 5' and 3' ss overhangs
Flag-RIG-I [8] = target: T1, Flag-RIG-I; test: pulldown; six clones isolated; partial clones of the full fragment; conditions: tags: FLAG, from 293T cells

B1: svRNA12 (ssRNA)
RNA: UGCACCGCCAACCAUGACUCCCCUGACGCCGAGCUCAUAGAGGCUAACCUCCUGUGGAGGCAGGAGAUGGGCGGCAACAUCACCAGGGUUGAGUCAGAGAACAAAGUGGUGAUUCUGGACUCCUUCGAUCCGCUUGUGGCAGAGGAGGAUGAGCGGGAGGUCUCCGUACCUGCAGAAAUUCUGCGGAAGUCUCGGAGAUUCGCCCGGGCCCUGCCCGUCUGGGCGCGGCCGGACUACAACCCCCCGCUA
B1: binds (Flag-RIG-I [1]).

B2: svRNA7 (ssRNA)
RNA: GGUCUCCUUACACCAGGCGCCAAGCAGAACAUCCAACUGAUCAACACCAACGGCAGUUGGCACAUCAAUAGCACGGCCUUGAAUUGCAAUGAAAGCCUUAACACCGGCUGGUUAGCAGGGCUCUUCUAUCAACACAAAUUCAACUCUUCAGGCUGUCCUGAGAGGUUGGCCAGCUGCCGACGCCUUACCGAUUUUGCCCAGGGCUGGGGUCCUA
B2: binds (Flag-RIG-I [1]).

B3: svRNA3 (5'-p3/3'-OH) (ssRNA)
RNA: AAGAACAAAGCUCAAACUCACUCCAAUAGCGGCCGCUGGCCGGCUGGACUUGUCCGGUUGGUUCACGGCUGGCUACAGCGGGGGAGACAUUUA
modifications: 5'-triphosphate, 3'-OH
B3: no binding [2]; binds (RIG-I full-length [3]).

B4: svRNA14 (ssRNA)
RNA: CCCGUGACCCUACAACCCCCCUCGCGAGAGCCGCGUGGGAGACAGCAAGACACACUCCAGUCAAUUCCUGGCUAGGCAACAU
B4: binds (Flag-RIG-I [4]).

B5: svRNA15 (ssRNA)
RNA: CCCGUGACCCUACAACCCCCCUCGCGAGAGCCGCGUGGGAGACAGCAAGACACACUCCAGUCAAUUCCUGGCUAGGCAACAU
B5: binds (Flag-RIG-I [1]).

B6: svRNA6 (ssRNA)
RNA: ACGGGUCAUCGCAUGGCAUGGGAUAUGAUGAUGAACUGGUCCCCUACGGCAGCGUUGGUGGUAGCUCAGCUGCUCCGGAUCCCACAAGCCAUCAUGGACAUGAUCGCUGGUGCUCACUGGGGAGUCCUGGCGGGCAUAGCGU
B6: binds (Flag-RIG-I [1]).

UGUUGCUGCAACGCUGGGCUUUGGUGCUU (ssRNA) [svRNA2]: binds (Flag-RIG-I [5]).

B7: svRNA3 (5'-OH/3'-p) (ssRNA)
RNA: AAGAACAAAGCUCAAACUCACUCCAAUAGCGGCCGCUGGCCGGCUGGACUUGUCCGGUUGGUUCACGGCUGGCUACAGCGGGGGAGACAU
modifications: 5'-OH, 3'-phosphate
B7: binds (Flag-RIG-I [6]); no binding [2]; binds (RIG-I full-length [7]).

B8: svRNA13 (ssRNA)
RNA: CCACCUCCACGGUCCCCUCCUGUGCCUCCGCCUCGGAAAAAGCGUACGGUGGUCCUCACCGAAUCAACCCUA
B8: binds (Flag-RIG-I [4]).

B9: svRNA8 (ssRNA)
RNA: GCUUGGGCCAGCCGACGGAAUGGUCUCCAAGGGGUGGAGGUUGCUGGCGCCCAUCACGGCGUACGCCCAGCAGACGAGAGGCCUCCUAGGGUGUAUA
B9: binds (Flag-RIG-I [4]).

B10: svRNA9 (ssRNA)
RNA: GCUUGGGCCAGCCGACGGAAUGGUCUCCAAGGGGUGGAGGUUGCUGGCGCCCAUCACGGCGUACGCCCAGCAGACGAGAGGCCUCCUAGGGUGUAUA
B10: binds (Flag-RIG-I [4]).

B11: svRNA11 (ssRNA)
RNA: ACAGACUGGGCGCUGUUCAGAAUGAAGUCACCCUGACGCACCCAAUCACCAAAUACAUCAUGACAUGCAUGUCGGCCGACCUGGAGAUCGUCACGAGCACCUGGGUGCUCGUUGGCGGCGUCCUGGCUGCUCUGGCCGCGUAUUGCCUGUCAACAGGCUGCGUGGUCAUAGUGGGCAGGAUU
B11: binds (Flag-RIG-I [4]).

ACCUUCUCUCCCAGGCGCCACUGGACGACGCAAGACUGCAAU (ssRNA) [svRNA5]: binds (Flag-RIG-I [4]).

UGUCCACCGGCCUCAUCCACCUCCACCAGAACAUU (ssRNA) [svRNA1]: binds (Flag-RIG-I [8]).

B12: svRNA10 (ssRNA)
RNA: ACCUGGUCACGAGGCACGCCGAUGUCAUUCCCGUGCGCCGGCGAGGUGAUAGCAGGGGUAGCCUGCUUUCGCCCCGGCCCAUUUCCUACUUGAAAGGCUCCUCGGGGGGUCCGCUGUUGUGCCCCGCGGGACACGCCGUGGGCCUAUUCAGGGCCGCGGUGUGCACCCGUGGAGUGGCU
B12: binds (Flag-RIG-I [4]).
